Laboratory results from PMC12084609, “Structural insights into small-molecule agonist recognition and activation of complement receptor C3aR” (The EMBO Journal, 2025).
Positions count from the first letter of the chain named. Values joined by “and” are separate entries in the source; they are usually repeats but may differ in a detail not shown here. Identical values can stand only once. Like-named read-outs stand apart in the source and are kept apart here.

Key:
Format in all cases: cell-based
C3aR I102^3.32A = target: T1, C3aR I102^3.32A (Homo sapiens, UniProt Q16581, I102A); assay: GloSensor-based cAMP assay, C3aR mutant I102A; settings: for ΔpIC50 ± SE of Diff.: I102^3.32A relative to WT C3aR; for cAMP response (% Forskolin): I1023.32A
T1 construct: expressed in transfected cells; host or cells: HEK293T
T1 sequence (Q16581 1-482 I102A): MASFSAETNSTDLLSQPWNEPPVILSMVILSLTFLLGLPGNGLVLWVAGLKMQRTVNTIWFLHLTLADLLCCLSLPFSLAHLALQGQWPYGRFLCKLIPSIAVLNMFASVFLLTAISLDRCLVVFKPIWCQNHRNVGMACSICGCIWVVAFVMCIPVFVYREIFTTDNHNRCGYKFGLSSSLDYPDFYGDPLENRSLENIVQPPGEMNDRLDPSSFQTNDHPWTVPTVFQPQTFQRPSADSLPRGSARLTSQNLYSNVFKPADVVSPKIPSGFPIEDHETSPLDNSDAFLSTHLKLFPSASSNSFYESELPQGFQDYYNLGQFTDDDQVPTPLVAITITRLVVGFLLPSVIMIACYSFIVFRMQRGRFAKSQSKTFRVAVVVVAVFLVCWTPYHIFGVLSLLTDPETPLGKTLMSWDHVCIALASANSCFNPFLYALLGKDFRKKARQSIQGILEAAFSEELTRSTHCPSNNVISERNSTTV
Protocol: (§1) HEK293T cells were seeded on 6-well plates (NEST) and transfected with pGlosensor™-22F plasmids (Promega) and pcDNA3.1 plasmids encoding C3aR or its mutants an with N-terminal FLAG tag. After 48 h, cells were detached with Accutase solution (Sigma-Aldrich) and washed with PBS, and resuspended in assay buffer (CO2-independent medium with 0.5 mg mL^−1D-luciferin). 100,000–200,000 cells were seeded on 96-well white bottom plates (SPL) and incubated at 37 °C for 45 min followed by 45 min incubation at room temperature. After 90 min of incubation, basal luminescence signals were recorded. In total, 25 μl of test ligand with various concentrations and 1 μM Forskolin (Sigma-Aldrich) were treated to the cells and luminescence signals were measured by Tristar 2 LB 942 multimode reader (Berthold). […] Relative luminescence unit (%) was calculated with the signal of wells treated with vehicle as 0% and the signal of wells treated with 1 μM Forskolin as 100% (DiRaddo et al, [2014]). Nonlinear regression was performed using a three-parameter logistic equation.

C3aR V103^3.33A = target: T2, C3aR V103^3.33A (Homo sapiens, UniProt Q16581, V103A); assay: GloSensor-based cAMP assay, C3aR mutant V103A; settings: for Mean Diff. of pIC50, WT vs. V103A: Dunnett's multiple comparisons test, WT minus mutant; for cAMP response (% Forskolin): single replicates; for ΔpIC50 ± SE of Diff.: V103^3.33A relative to WT C3aR
T2 construct: expressed in transfected cells; host or cells: HEK293T
T2 sequence (Q16581 1-482 V103A): T1 sequence (Q16581 1-482 I102A) with A102I, V103A
Protocol: as §1

C3aR D417^7.35A = target: T3, C3aR D417^7.35A (Homo sapiens, UniProt Q16581, D417A); assay: GloSensor-based cAMP assay, C3aR mutant D417A; settings: for cAMP response (% Forskolin): D4177.35A
T3 construct: expressed in transfected cells; host or cells: HEK293T
T3 sequence (Q16581 1-482 D417A): T1 sequence (Q16581 1-482 I102A) with A102I, D417A
Protocol: as §1

[1] = Dunnett's multiple comparisons test, WT minus mutant
[2] = Log[C3a (M)] -7, single replicates
[3] = Log[C3a (M)] -8, single replicates
[4] = Log[C3a (M)] -9, single replicates
[5] = Log[C3a (M)] -10, single replicates
[6] = Log[C3a (M)] -11, single replicates
[7] = Log[C3a (M)] -12, single replicates

C3a: anaphylatoxin C3a, natural peptide ligand of C3aR (a 77-amino acid peptide), Sigma-Aldrich
Mean Diff. of pIC50, WT vs. I102A (C3aR I102^3.32A; [1]): 0.080 | ΔpIC50 ± SE of Diff. (C3aR I102^3.32A): -0.08 ± 0.06 | IC50 (C3aR I102^3.32A; I102^3.32A, dose-response plot, read-out: IC50): 3.33 nM | pIC50 (Replicate) (C3aR I102^3.32A; I102^3.32A, individual replicates): 8.61 and 8.63 and 8.49 | pIC50 ± SEM (Mean) (C3aR I102^3.32A; I102^3.32A, mean of independent experiments): 8.47 | cAMP response (% Forskolin) (C3aR I102^3.32A; [2]): 12.51 % Forskolin and 13.87 % Forskolin and 13.89 % Forskolin and 16.73 % Forskolin | cAMP response (% Forskolin) (C3aR I102^3.32A; [3]): 18.09 % Forskolin and 20.55 % Forskolin and 21.20 % Forskolin and 43.71 % Forskolin | cAMP response (% Forskolin) (C3aR I102^3.32A; [4]): 79.37 % Forskolin and 75.76 % Forskolin and 87.66 % Forskolin and 96.25 % Forskolin | cAMP response (% Forskolin) (C3aR I102^3.32A; [5]): 100.22 % Forskolin and 97.06 % Forskolin and 101.20 % Forskolin and 92.74 % Forskolin | cAMP response (% Forskolin) (C3aR I102^3.32A; [6]): 101.22 % Forskolin and 97.60 % Forskolin and 96.34 % Forskolin and 96.47 % Forskolin | cAMP response (% Forskolin) (C3aR I102^3.32A; [7]): 100.09 % Forskolin and 99.44 % Forskolin and 103.06 % Forskolin and 100.29 % Forskolin | Mean Diff. of pIC50, WT vs. V103A (C3aR V103^3.33A): 0.086 | cAMP response (% Forskolin) (C3aR V103^3.33A; V103A, Log[C3a (M)] -7): 16.81 % Forskolin and 17.64 % Forskolin and 16.37 % Forskolin | cAMP response (% Forskolin) (C3aR V103^3.33A; V103A, Log[C3a (M)] -8): 18.63 % Forskolin and 17.74 % Forskolin and 17.49 % Forskolin | cAMP response (% Forskolin) (C3aR V103^3.33A; V103A, Log[C3a (M)] -9): 66.34 % Forskolin and 67.98 % Forskolin and 37.55 % Forskolin | cAMP response (% Forskolin) (C3aR V103^3.33A; V103A, Log[C3a (M)] -10): 87.50 % Forskolin and 90.87 % Forskolin and 75.99 % Forskolin | cAMP response (% Forskolin) (C3aR V103^3.33A; V103A, Log[C3a (M)] -11): 101.77 % Forskolin and 100.57 % Forskolin and 97.94 % Forskolin | cAMP response (% Forskolin) (C3aR V103^3.33A; V103A, Log[C3a (M)] -12): 105.75 % Forskolin and 100.95 % Forskolin and 97.98 % Forskolin | ΔpIC50 ± SE of Diff. (C3aR V103^3.33A): -0.09 ± 0.05 | IC50 (C3aR V103^3.33A; V103^3.33A, dose-response plot, read-out: IC50): 3.53 nM | pIC50 (Replicate) (C3aR V103^3.33A; V103^3.33A, individual replicates): 8.49 and 8.72 and 8.44 and 8.20 | pIC50 ± SEM (Mean) (C3aR V103^3.33A; V103^3.33A, mean of independent experiments): 8.46 | cAMP response (% Forskolin) (C3aR V103^3.33A; V1033.33A, Log[C3a (M)] -7): 19.41 % Forskolin and 19.52 % Forskolin and 19.42 % Forskolin and 22.72 % Forskolin | cAMP response (% Forskolin) (C3aR V103^3.33A; V1033.33A, Log[C3a (M)] -8): 24.04 % Forskolin and 22.92 % Forskolin and 25.51 % Forskolin and 44.96 % Forskolin | cAMP response (% Forskolin) (C3aR V103^3.33A; V1033.33A, Log[C3a (M)] -9): 89.16 % Forskolin and 71.89 % Forskolin and 87.77 % Forskolin and 103.75 % Forskolin | cAMP response (% Forskolin) (C3aR V103^3.33A; V1033.33A, Log[C3a (M)] -10): 100.58 % Forskolin and 94.90 % Forskolin and 95.96 % Forskolin and 103.23 % Forskolin | cAMP response (% Forskolin) (C3aR V103^3.33A; V1033.33A, Log[C3a (M)] -11): 100.23 % Forskolin and 96.38 % Forskolin and 92.81 % Forskolin and 102.90 % Forskolin | cAMP response (% Forskolin) (C3aR V103^3.33A; V1033.33A, Log[C3a (M)] -12): 97.59 % Forskolin and 96.90 % Forskolin and 93.29 % Forskolin and 103.97 % Forskolin | cAMP response (% Forskolin) (C3aR D417^7.35A; [2]): 91.99 % Forskolin and 99.64 % Forskolin and 84.06 % Forskolin | cAMP response (% Forskolin) (C3aR D417^7.35A; [3]): 90.00 % Forskolin and 93.47 % Forskolin and 96.64 % Forskolin | cAMP response (% Forskolin) (C3aR D417^7.35A; [4]): 98.82 % Forskolin and 114.21 % Forskolin and 106.52 % Forskolin | cAMP response (% Forskolin) (C3aR D417^7.35A; [5]): 109.81 % Forskolin and 104.73 % Forskolin and 103.88 % Forskolin | cAMP response (% Forskolin) (C3aR D417^7.35A; [6]): 98.54 % Forskolin and 110.53 % Forskolin and 108.95 % Forskolin | cAMP response (% Forskolin) (C3aR D417^7.35A; [7]): 97.82 % Forskolin and 107.45 % Forskolin and 101.02 % Forskolin

Cc1cc(C(c2ccc(Cl)cc2)c2ccc(Cl)cc2)sc1C(=O)N[C@@H](CCCNC(=N)N)C(=O)O [JR14a, reference compound]
remaining activity at 1 µM (C3aR I102^3.32A; I102A, Log[JR14a (M)] -6, single replicates, read-out: cAMP response (% Forskolin)): 11.4% | remaining activity at 0.1 µM (C3aR I102^3.32A; I102A, Log[JR14a (M)] -7, single replicates, read-out: cAMP response (% Forskolin)): 12.3% | remaining activity at 0.01 µM (C3aR I102^3.32A; I102A, Log[JR14a (M)] -8, single replicates, read-out: cAMP response (% Forskolin)): 52.6% | remaining activity at 0.001 µM (C3aR I102^3.32A; I102A, Log[JR14a (M)] -9, single replicates, read-out: cAMP response (% Forskolin)): 79.2% | remaining activity at 0.0001 µM (C3aR I102^3.32A; I102A, Log[JR14a (M)] -10, single replicates, read-out: cAMP response (% Forskolin)): 97.7% | remaining activity at 10 pM (C3aR I102^3.32A; I102A, Log[JR14a (M)] -11, single replicates, read-out: cAMP response (% Forskolin)): 104% | ΔpIC50 ± SE of Diff. (C3aR I102^3.32A): -0.13 ± 0.07 | IC50 (C3aR I102^3.32A; IC50, I102^3.32A, dose-response plot): 7.05 nM | IC50 (C3aR I102^3.32A; pIC50 (Replicate), I102^3.32A, individual replicates): 7.76 nM and 9.12 nM and 4.68 nM | IC50 (C3aR I102^3.32A; pIC50 ± SEM (Mean), I102^3.32A, mean of independent experiments): 6.92 nM | Mean Diff. of pIC50, WT vs. V103A (C3aR V103^3.33A): 0.201 | IC50 (C3aR V103^3.33A; IC50, V103^3.33A, dose-response plot): 8.93 nM | ΔpIC50 ± SE of Diff. (C3aR V103^3.33A): -0.20 ± 0.05 | IC50 (C3aR V103^3.33A; pIC50 (Replicate), V103^3.33A, individual replicates): 12.9 nM and 14.8 nM and 3.02 nM | IC50 (C3aR V103^3.33A; pIC50 ± SEM (Mean), V103^3.33A, mean of independent experiments): 8.32 nM | remaining activity at 1 µM (C3aR D417^7.35A; D417A, Log[JR14a (M)] -6, single replicates, read-out: cAMP response (% Forskolin)): 35.7% | remaining activity at 0.1 µM (C3aR D417^7.35A; D417A, Log[JR14a (M)] -7, single replicates, read-out: cAMP response (% Forskolin)): 87.8% | remaining activity at 0.001 µM (C3aR D417^7.35A; D417A, Log[JR14a (M)] -9, single replicates, read-out: cAMP response (% Forskolin)): 105% | remaining activity at 0.0001 µM (C3aR D417^7.35A; D417A, Log[JR14a (M)] -10, single replicates, read-out: cAMP response (% Forskolin)): 104% | ΔpIC50 ± SE of Diff. (C3aR D417^7.35A; D417^7.35A relative to WT C3aR): -2.18 ± 0.05 | Mean Diff. of pIC50, WT vs. D417A (C3aR D417^7.35A; [1]): 2.176 | IC50 (C3aR D417^7.35A; IC50, D417^7.35A, dose-response plot, Not calculated = entire loss of signaling): 425 nM | IC50 (C3aR D417^7.35A; pIC50 (Replicate), D417^7.35A, individual replicates): 575 nM and 339 nM and 380 nM | IC50 (C3aR D417^7.35A; pIC50 ± SEM (Mean), D417^7.35A, mean of independent experiments, Not calculated = entire loss of signaling): 417 nM
